B1: fully human anti-ALK IgG B6 (antibody, V domains shown)
VH: EVQLLESGGGLVQPGGSLRLSCAASGFTFSFYTMFWVRQAPGKGLEWVSSIRPSGGLTGYADSVKGRFTISRDNSKNTLYLQMNSLRAEDTAVYYCARGMQRGLDYWGQGTLVTVSS
VL: QSALSQPPSASGTPGQRVSISCSGSSSNIGSYYVYWYQHLPGTAPKLLIYRNNQRPSGVPDRFSGSKSGTSASLAISGLRSEDESDYYCAAWDDRLSAWVFGGGTKLTVLG
notes: Full length fully human IgG
B2: fully human anti-ALK IgG E1 (antibody, V domains shown)
VH: EVQLLESGGGLVQPGGSLRLSCAASGFTFSWYSMWWVRQAPGKGLEWVSSIRPSGGKTTYADSVKGRFTISRDNSKNTLYLQMNSLRAEDTAVYYCAKGLDPNGIAAAGGEGYWGQGTLVTVSS
VL: QSALTQPASVSGSPGQSITITCSGDALPKQFGYWYQQKPGQAPILVIYKDTERPSGIPERFSGSSSGTIVTLTISGVRAEDEADYYCQSADSSGNSVVFGGGTKLTVLG
notes: Full length fully human IgG; also called El
B3: fully human anti-ALK IgG B8 (antibody, V domains shown)
VH: EVQLLESGGGLVQPGGSLRLSCAASGFTFSQYVMAWVRQAPGKGLEWVSSIWSSGGMTWYADSVKGRFTISRDNSKNTLYLQMNSLRAEDTAVYYCAKHGVLRYFDWSMPFDFWGQGTLVTVSS
VL: DIQMTQSPPSLSASVGDRVTITCRTSQNISSYLNWYQQKPGKAPKLLIYAASSLQSGVPSRFSGSGSGTDFTLTIRSLQPEDFAAYYCQQSYTSLTFGGGTKVEIK
notes: Full length fully human IgG
B4: fully human anti-ALK IgG D5 (antibody, V domains shown)
VH: EVQLLESGGGLVQPGGSLRLSCAASGFTFSNYRMSWVRQAPGKGLEWVSWIYSSGGMTTYADSVKGRFTISRDNSKNTLYLQMNSLRAEDTAVYYCARERSKNYDTSVPVGFDIWGQGTMVTVSS
VL: DIQMTQSPATLSLSPGERATLSCRASQSISSFLAWYQHKPGQAPRLLIYDASNRATGIPARFSGSGSGTDFTLTISSLEPEDFAVYYCQQRTTWPPALTFGGGTKVEIK
notes: Full length fully human IgG
B5: fully human anti-ALK IgG C1 (antibody, V domains shown)
VH: EVQLLESGGGLVQPGGSLRLSCAASGFTFSMYPMDWVRQAPGKGLEWVSRISSSGGTTEYADSVKGRFTISRDNSKNTLYLQMNSLRAEDTAVYYCTRRFCISGVCPFEYWGQGTLVTVSS
VL: QSALTQPPSASGTPGQRVTISCSGSSSNIGSNTVNWYQQLPGTAPKLLIYSNNQRPSGVPDRFSGSKSGTSASLAISGLQSEDEADYYCQSYDNSLTNFVFGSGTKVTVLG
notes: Full length fully human IgG; also called Cl
B6: fully human anti-ALK IgG E5 (antibody, V domains shown)
VH: EVQLLESGGGLVQPGGSLRLSCAASGFTFSLYPMMWVRQAPGKGLEWVSVISSSGGFTFYADSVKGRFTISRDNSKNTLYLQMNSLRAEDTAVYYCARSLAYIFDAFDIWGQGTMVTVSS
VL: DIQMTQSPGTLSLSPGERATLYCRASQSLYSSYLAWYQQRPGQAPRLLIYDTSSRATGIPDRFSGSGSGTDFTLTISRLEPEDFAVYYCQQYGTSLRTFGQGTKVEIK
notes: Full length fully human IgG
B7: fully human anti-ALK IgG A2 (antibody, V domains shown)
VH: EVQLLESGGGLVQPGGSLRLSCAASGFTFSGYTMYWVRQAPGKGLEWVSSISPSGGITFYADSVKGRFTISRDNSKNTLYLQMNSLRAEDTAVYYCARGRLFWSGYYTNRLGYAFDIWGQGTMVTVSS
VL: DIQMTQSPSSLSASVGDRVTITCRASQSIRSYLNWYQQKPGKAPKLLIYAASNLQSGVPSRFSGSGSGTDFTLSISSLQPEDFATYYCQQSYSTLWTFGQGTKVEIK
notes: Full length fully human IgG
B8: fully human anti-ALK IgG A7 (antibody, V domains shown)
VH: EVQLLESGGGLVQPGGSLRLSCAASGFTFSNYIMSWVRQAPGKGLEWVSWISSSGGFTQYADSVKGRFTISRDNSKNTLYLQMNSLRAEDTAVYYCARVIAAAGAFDYWGQGTLVTVSS
VL: DIQMTQSPSSVAASVGDRVTITCRASQDISTWLAWYQQKPGKAPKLLLSGASRLERGVPSRFSGSGSGTDFTLTIRGLQSEDFATYYCQQARSFPPTFGQGTRVEMR
notes: Full length fully human IgG
B9: fully human anti-ALK IgG D10 (antibody, V domains shown)
VH: EVQLLESGGGLVQPGGSLRLSCAASGFTFSKYGMHWVRQAPGKGLEWVSYIVPSGGYTIYADSVKGRFTISRDNSKNTLYLQMNSLRAEDTAMYYCAKLAGDWFDPWGQGTLVTVSS
VL: DIQMTQSPLSLPVTLGQPASISCRSSQSLVHSNGNTYLSWFHQRPGQSPRRLIHKISDRVSGVPDRFSGSGSGTDFTLKISRLEAEDVGIYYCMQGTHWPPTFGQGTKVEIK
notes: Full length fully human IgG; also called DlO; DlO antibody
B10: fully human anti-ALK IgG B2 (antibody, V domains shown)
VH: EVQLLESGGGLVQPGGSLRLSCAASGFTFSHYMMEWVRQAPGKGLEWVSGIVPSGGLTTYADSVKGRFTISRDNSKNTLYLQMNSLRAEDTAVYYCATITMGAFDIWGQGTMVTVSS
VL: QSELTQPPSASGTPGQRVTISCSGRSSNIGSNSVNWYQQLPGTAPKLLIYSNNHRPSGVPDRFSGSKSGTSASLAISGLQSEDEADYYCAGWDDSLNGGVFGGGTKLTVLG
notes: Full length fully human IgG

biological target: T1, ALK-ECD-myc/his tag protein (human, UniProt Q9UM73 19-1038); experiment: ELISA, ALK-ECD-myc/his coated at 10 μg/mL, anti-human IgG-HRP
T1 construct: Expressed in 293/293F cells and purified from conditioned medium; biotin labelled for the soluble panning; also called recombinant ALK-ECD-myc/his tag; ALK-ECD protein; not shown: Myc/His tag
T1 sequence (Q9UM73 other isoform, or with tags, fused parts or gaps): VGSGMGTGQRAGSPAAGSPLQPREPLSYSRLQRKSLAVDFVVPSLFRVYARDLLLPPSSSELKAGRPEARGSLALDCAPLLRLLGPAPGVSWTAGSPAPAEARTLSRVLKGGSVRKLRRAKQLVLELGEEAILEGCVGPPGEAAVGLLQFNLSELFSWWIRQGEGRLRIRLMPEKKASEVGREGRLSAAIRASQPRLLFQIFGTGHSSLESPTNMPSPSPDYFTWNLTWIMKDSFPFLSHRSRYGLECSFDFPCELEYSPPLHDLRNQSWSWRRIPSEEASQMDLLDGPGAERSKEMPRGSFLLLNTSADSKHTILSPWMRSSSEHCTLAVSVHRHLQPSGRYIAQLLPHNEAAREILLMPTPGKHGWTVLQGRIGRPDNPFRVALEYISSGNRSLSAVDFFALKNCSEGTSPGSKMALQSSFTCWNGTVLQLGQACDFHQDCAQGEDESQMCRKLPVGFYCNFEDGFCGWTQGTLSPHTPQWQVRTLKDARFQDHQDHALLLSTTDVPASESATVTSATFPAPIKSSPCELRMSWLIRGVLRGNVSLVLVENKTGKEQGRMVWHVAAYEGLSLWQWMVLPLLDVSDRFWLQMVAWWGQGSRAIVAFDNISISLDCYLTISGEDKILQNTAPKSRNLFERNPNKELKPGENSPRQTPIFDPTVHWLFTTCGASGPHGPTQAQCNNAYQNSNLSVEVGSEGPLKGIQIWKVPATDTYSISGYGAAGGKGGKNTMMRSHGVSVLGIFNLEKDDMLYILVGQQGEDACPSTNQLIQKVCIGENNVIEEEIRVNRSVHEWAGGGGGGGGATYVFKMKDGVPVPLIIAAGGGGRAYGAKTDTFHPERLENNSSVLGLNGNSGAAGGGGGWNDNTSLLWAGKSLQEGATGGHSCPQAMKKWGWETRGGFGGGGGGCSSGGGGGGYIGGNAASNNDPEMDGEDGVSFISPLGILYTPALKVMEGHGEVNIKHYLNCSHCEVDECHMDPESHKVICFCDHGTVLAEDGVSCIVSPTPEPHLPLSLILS

Binding result, binds:
B1
B2
B3
B4
B5
B6
B7
B8
B9
B10

biological target: T2, ALK expressed on the cell surface (human, UniProt Q9UM73 19-1620); experiment: FACS on ALK positive cells, 1 to 20 μg/mL IgG, FITC anti-human IgG
T2 construct: also called ALK protein expressed on the cell surface; ALK-expressing cells
T2 sequence (Q9UM73 other isoform, or with tags, fused parts or gaps limits assumed): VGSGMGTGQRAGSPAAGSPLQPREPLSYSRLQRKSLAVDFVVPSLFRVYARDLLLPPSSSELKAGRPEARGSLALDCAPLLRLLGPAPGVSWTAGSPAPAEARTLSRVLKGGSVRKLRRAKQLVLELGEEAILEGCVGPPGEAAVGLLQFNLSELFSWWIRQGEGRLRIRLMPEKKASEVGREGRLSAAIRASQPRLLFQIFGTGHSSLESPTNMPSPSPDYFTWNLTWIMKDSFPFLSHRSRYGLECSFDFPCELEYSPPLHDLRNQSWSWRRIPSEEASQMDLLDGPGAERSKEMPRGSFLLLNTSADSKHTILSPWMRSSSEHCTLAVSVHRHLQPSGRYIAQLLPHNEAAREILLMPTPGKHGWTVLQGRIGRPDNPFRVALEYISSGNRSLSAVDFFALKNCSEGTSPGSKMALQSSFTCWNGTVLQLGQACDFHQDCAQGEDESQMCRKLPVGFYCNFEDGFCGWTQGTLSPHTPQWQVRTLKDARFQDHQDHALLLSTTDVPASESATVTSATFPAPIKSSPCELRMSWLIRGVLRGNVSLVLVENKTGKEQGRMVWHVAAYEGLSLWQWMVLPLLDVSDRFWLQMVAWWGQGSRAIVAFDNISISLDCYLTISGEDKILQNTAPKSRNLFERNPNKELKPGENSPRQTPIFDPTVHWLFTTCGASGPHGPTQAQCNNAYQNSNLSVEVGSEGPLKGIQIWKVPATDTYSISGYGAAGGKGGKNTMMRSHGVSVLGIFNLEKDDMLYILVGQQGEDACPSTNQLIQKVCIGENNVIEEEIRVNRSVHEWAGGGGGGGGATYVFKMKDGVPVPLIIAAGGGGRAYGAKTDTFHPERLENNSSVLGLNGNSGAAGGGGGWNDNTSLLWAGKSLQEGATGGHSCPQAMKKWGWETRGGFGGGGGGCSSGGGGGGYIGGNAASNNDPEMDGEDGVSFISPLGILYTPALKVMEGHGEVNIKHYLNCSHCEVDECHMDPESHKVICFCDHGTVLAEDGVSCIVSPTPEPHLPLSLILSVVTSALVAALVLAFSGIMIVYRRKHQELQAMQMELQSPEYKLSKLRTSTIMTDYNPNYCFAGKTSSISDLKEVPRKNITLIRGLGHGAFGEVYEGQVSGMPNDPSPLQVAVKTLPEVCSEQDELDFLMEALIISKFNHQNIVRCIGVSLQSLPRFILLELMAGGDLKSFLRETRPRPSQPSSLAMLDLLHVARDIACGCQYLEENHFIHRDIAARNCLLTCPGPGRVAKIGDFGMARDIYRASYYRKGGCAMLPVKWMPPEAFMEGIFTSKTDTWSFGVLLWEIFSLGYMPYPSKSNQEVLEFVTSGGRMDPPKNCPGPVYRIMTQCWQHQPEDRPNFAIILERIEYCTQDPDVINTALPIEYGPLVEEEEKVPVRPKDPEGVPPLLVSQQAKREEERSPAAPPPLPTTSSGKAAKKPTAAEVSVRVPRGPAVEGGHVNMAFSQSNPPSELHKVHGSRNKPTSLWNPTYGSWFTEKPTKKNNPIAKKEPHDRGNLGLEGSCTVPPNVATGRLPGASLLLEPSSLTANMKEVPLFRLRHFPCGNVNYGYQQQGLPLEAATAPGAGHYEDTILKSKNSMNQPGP

Binding result, binds:
B9

Reference: WO2007059300A2 (dated 2007)
